Results on 15 molecules are retold here after patent US10766960 (dated 2020).

Where a chain is given by its changes, count along the chain named.

The term Kd denotes a measure of binding affinity in units of concentration.

Holding throughout (test): SPR
(In general: In SPR one partner is held on a chip, and binding of the other changes the refractive index at the surface.)

The target in one test is FcgRIIIa F (human, UniProt P08637).
The target of a further test is FcgRIIIa V (human, UniProt P08637).
A further test has as its target T1, FcgRIIb (human, UniProt P31994).
T1 chain: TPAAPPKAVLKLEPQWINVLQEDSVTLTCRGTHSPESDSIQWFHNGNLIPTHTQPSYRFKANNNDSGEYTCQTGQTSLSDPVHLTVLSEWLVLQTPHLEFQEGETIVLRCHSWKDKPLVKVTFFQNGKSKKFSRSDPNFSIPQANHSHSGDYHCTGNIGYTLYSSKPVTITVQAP

The target of a further test is T2, FcgRIIa H (human, UniProt P12318).
T2 chain: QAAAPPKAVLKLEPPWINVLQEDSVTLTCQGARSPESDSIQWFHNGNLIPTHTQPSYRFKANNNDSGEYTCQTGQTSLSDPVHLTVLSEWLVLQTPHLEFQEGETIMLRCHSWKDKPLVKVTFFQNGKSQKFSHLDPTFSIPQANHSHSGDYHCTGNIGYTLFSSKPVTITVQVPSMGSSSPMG

The next test concerns the target T3, FcgRIa (human, UniProt P12314).
T3 chain: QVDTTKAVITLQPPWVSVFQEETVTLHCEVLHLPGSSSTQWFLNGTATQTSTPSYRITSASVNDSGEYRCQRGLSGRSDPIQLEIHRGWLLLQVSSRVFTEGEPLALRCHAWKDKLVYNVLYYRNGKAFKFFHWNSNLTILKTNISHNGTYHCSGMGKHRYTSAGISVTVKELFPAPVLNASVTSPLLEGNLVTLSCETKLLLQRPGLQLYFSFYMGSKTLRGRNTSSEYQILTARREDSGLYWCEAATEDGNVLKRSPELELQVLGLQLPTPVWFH

Another test concerns the target T4, FcgRIIa R (human, UniProt P12318).
T4 chain: T2 chain with H134R

Sequence of FcgRIIIa V (P08637 17-208 F176V): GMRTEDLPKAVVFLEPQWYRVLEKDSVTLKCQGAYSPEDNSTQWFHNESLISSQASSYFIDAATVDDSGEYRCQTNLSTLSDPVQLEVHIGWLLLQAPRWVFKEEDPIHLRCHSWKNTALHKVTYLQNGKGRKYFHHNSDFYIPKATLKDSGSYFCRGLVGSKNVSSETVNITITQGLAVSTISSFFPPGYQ
Sequence of FcgRIIIa F (P08637 17-208): as the sequence (P08637 17-208 F176V) above, with V160F counted along it

B1: H240-FA009/H240-FB047/L73-k0 (antibody)
chain 1: QDQLVQSGAEVKKPGASVKVSCKASGFNIKDTYIQWVRQAPGQGLEWMGRIDPLRKQTKYREKFEGRVTITADTSTNTAYMELSSLRSEDTAVYYCVRSGREFDYWGQGTLVTVSSASTKGPSVFPLAPSSKSTSGGTAALGCLVKDYFPEPVTVSWNSGALTSGVHTFPAVLQSSGLYSLSSVVTVPSSSLGTKTYICNVNHKPSNTKVDKKVEPKSCDKTHTCPPCPAPEYYWGPSVFLFPPKPKDTLMISRTPEVTCVVVDVSDEEPEVKFNWYVDGVEVHNAKTKPREEQYNATYRVVSVLTVLHQDWLNGKEYKCKVSNKALPAPIEKTISKAKGQPREPQVYTLPPSRKEMTKNQVSLTCLVKGFYPSDIAVEWESNGQPENNYKTTPPVLDSDGSFFLYSKLTVDKSRWQQGNVFSCSVMHEALHNRYTQKSLSLSP
chain 2: QDQLVQSGAEVKKPGASVKVSCKASGFNIKDTYIQWVRQAPGQGLEWMGRIDPLRKQTKYREKFEGRVTITADTSTNTAYMELSSLRSEDTAVYYCVRSGREFDYWGQGTLVTVSSASTKGPSVFPLAPSSKSTSGGTAALGCLVKDYFPEPVTVSWNSGALTSGVHTFPAVLQSSGLYSLSSVVTVPSSSLGTQTYICNVNHKPSNTKVDKKVEPKSCDKTHTCPPCPAPELLGGPSVFLFPPKPKDTLMISRTPEVTCVVVDVSHEEPEVQFNWYVDGVEVHNAKTKPREEQYNSTYRVVSVLTVLHQDWLNGKEYKCKVSNDALPMPIEETISKAKGQPREPQVYTLPPSREEMTKNQVSLTCLVKGFYPSDIAVEWESEGQPENNYKTTPPVLDSDGSFFLYSKLTVDKSRWQQGNVFSCSVMHEALHNHYTQESLSLSP
chain 3: DIQMTQSPSSLSASVGDRVTITCRASQDIHKYIAWYQQKPGQAPRLLIQYTSTLQPGVPSRFSGSGSGTDYTFTISSLQPEDIATYYCLQYEQLRTFGGGTKVEIKRTVAAPSVFIFPPSDEQLKSGTASVVCLLNNFYPREAKVQWKVDNALQSGNSQESVTEQDSKDSTYSLSSTLTLSKADYEKHKVYACEVTHQGLSSPVTKSFNRGEC
In the case of B1, the dissociation constant (Kd) in the test with FcgRIIIa F amounted to 4.4 nM; in the test with FcgRIIIa V it was 1.1 nM; in the test with FcgRIIb it was 1700 nM; with FcgRIIa H it was 74 nM; in the test with FcgRIa it was 0.05 nM; in the test with FcgRIIa R it was 270 nM.

B2: H240-FA020/H240-FB082/L73-k0 (antibody)
chain 1: B1 chain 1 with I198T, M357K
chain 2: B1 chain 2 with G137E, K146E, K287E
chain 3: B1 chain 3
Turning to B2, the equilibrium dissociation constant (Kd) was found to be 3.4 nM with FcgRIIIa F; 1.1 nM in the test with FcgRIIIa V; 1200 nM with FcgRIIb; 69 nM in the test with FcgRIIa H; 0.079 nM with FcgRIa; 270 nM with FcgRIIa R.

B3: H240-FA009/H240-FB020/L73-k0 (antibody)
chain 1: B1 chain 1
chain 2: B1 chain 2 with K146E, E383N
chain 3: B1 chain 3
Turning to B3, the Kd in the test with FcgRIIIa F was found to be 3.9 nM; in the test with FcgRIIIa V, 1.1 nM; in the test with FcgRIIb, 1400 nM; with FcgRIIa H it was 64 nM; in the test with FcgRIa, 0.12 nM; with FcgRIIa R, 250 nM.

B4: H240-FA012/H240-FB001/L73-k0 (antibody)
chain 1: B1 chain 1 with E271K
chain 2: B1 chain 2 with E383N
chain 3: B1 chain 3
With B4, the Kd with FcgRIIIa F was 6.3 nM; with FcgRIIIa V it was 1.5 nM; in the test with FcgRIIb it was 1700 nM; with FcgRIIa H, 110 nM; with FcgRIa it was 0.076 nM; with FcgRIIa R, 350 nM.

B5: H240-FA030/H240-FB065/L73-k0 (antibody)
chain 1: B1 chain 1 with I198T, E271K
chain 2: B1 chain 2 with G136E, G137S, S191N, L192F, I198T, N202D, K213T, K287E, E383N
chain 3: B1 chain 3
For B5, the Kd in the test with FcgRIIIa F amounted to 4.6 nM; with FcgRIIIa V, 1.1 nM; with FcgRIIb, 2400 nM; with FcgRIIa H it was 99 nM; in the test with FcgRIa, 0.1 nM; with FcgRIIa R, 340 nM.

B6: H240-FA021/H240-FB082/L73-k0 (antibody)
chain 1: B1 chain 1 with I198T, M357K, V396K
chain 2: B1 chain 2 with G137E, K146E, K287E
chain 3: B1 chain 3
Turning to B6, the dissociation constant (Kd) turned out to be 4.2 nM with FcgRIIIa F; 1.5 nM in the test with FcgRIIIa V; 1600 nM with FcgRIIb; 77 nM with FcgRIIa H; 0.06 nM in the test with FcgRIa; 230 nM with FcgRIIa R.

B7: H240-FA009/H240-FB017/L73-k0 (antibody)
chain 1: B1 chain 1
chain 2: B1 chain 2 with G136E, N202D, E383N
chain 3: B1 chain 3
As to B7, the Kd with FcgRIIIa F came to 3 nM; with FcgRIIIa V, 0.84 nM; with FcgRIIb it was 1400 nM; with FcgRIIa H, 61 nM; with FcgRIa it was 0.11 nM; with FcgRIIa R, 230 nM.

B8: H240-FA020/H240-FB084/L73-k0 (antibody)
chain 1: B1 chain 1 with I198T, M357K
chain 2: B1 chain 2 with G136E, G137S, K146E, S191N, L192F, I198T, N202D, K213T, K287E
chain 3: B1 chain 3
For B8, the Kd with FcgRIIIa F was determined as 3.5 nM; with FcgRIIIa V it was 1 nM; with FcgRIIb, 1400 nM; with FcgRIIa H, 57 nM; with FcgRIa, 0.068 nM; with FcgRIIa R, 220 nM.

B9: H240-FA009/H240-FB015/L73-k0 (antibody)
chain 1: B1 chain 1
chain 2: B1 chain 2 with G136E, E383N
chain 3: B1 chain 3
As for B9, the dissociation constant Kd with FcgRIIIa F was 4.2 nM; in the test with FcgRIIIa V, 1.3 nM; with FcgRIIb, 1800 nM; in the test with FcgRIIa H, 84 nM; with FcgRIa it was 0.093 nM; in the test with FcgRIIa R it was 330 nM.

B10: H240-FA020/H240-FB059/L73-k0 (antibody)
chain 1: B1 chain 1 with I198T, M357K
chain 2: B1 chain 2 with G137E, K146E, K287E, E383N
chain 3: B1 chain 3
For the molecule B10, the dissociation constant Kd worked out at 3.5 nM with FcgRIIIa F; 1.3 nM with FcgRIIIa V; 1300 nM in the test with FcgRIIb; 77 nM with FcgRIIa H; 0.038 nM in the test with FcgRIa; 250 nM with FcgRIIa R.

B11: H240-FA030/H240-FB064/L73-k0 (antibody)
chain 1: B1 chain 1 with I198T, E271K
chain 2: B1 chain 2 with G136E, G137S, S191N, L192F, I198T, N202D, K213T, E383N
chain 3: B1 chain 3
Turning to B11, the Kd with FcgRIIIa F is 5.3 nM; with FcgRIIIa V it was 1.5 nM; in the test with FcgRIIb, 1800 nM; in the test with FcgRIIa H it was 96 nM; in the test with FcgRIa, 0.057 nM; in the test with FcgRIIa R, 290 nM.

B12: H240-FA012/H240-FB056/L73-k0 (antibody)
chain 1: B1 chain 1 with E271K
chain 2: B1 chain 2 with G136E, K146E, N202D, K287E, E383N
chain 3: B1 chain 3
Consider B12, for which the dissociation constant (Kd) worked out at 5 nM with FcgRIIIa F; 1.3 nM with FcgRIIIa V; 1400 nM with FcgRIIb; 86 nM with FcgRIIa H; 0.1 nM in the test with FcgRIa; 280 nM in the test with FcgRIIa R.

B13: H240-FA009/H240-FB052/L73-k0 (antibody)
chain 1: B1 chain 1
chain 2: B1 chain 2 with K213T, E383N
chain 3: B1 chain 3
As for B13, the dissociation constant Kd with FcgRIIIa F is 4.3 nM; with FcgRIIIa V, 0.89 nM; in the test with FcgRIIb, 1400 nM; in the test with FcgRIIa H, 72 nM; with FcgRIa it was 0.051 nM; in the test with FcgRIIa R, 270 nM.

B14: H240-FA030/H240-FB083/L73-k0 (antibody)
chain 1: B1 chain 1 with I198T, E271K
chain 2: B1 chain 2 with G136E, G137S, K146E, S191N, L192F, I198T, N202D, K213T, K287E, E383N
chain 3: B1 chain 3
As for B14, the Kd with FcgRIIIa F was determined as 3.9 nM; in the test with FcgRIIIa V, 1.2 nM; with FcgRIIb, 1500 nM; with FcgRIIa H it was 82 nM; with FcgRIa, 0.081 nM; with FcgRIIa R it was 280 nM.

B15: H240-FA009/H240-FB021/L73-k0 (antibody)
chain 1: B1 chain 1
chain 2: B1 chain 2 with K287E, E383N
chain 3: B1 chain 3
With B15, the dissociation constant Kd worked out at 3.7 nM in the test with FcgRIIIa F; 0.78 nM in the test with FcgRIIIa V; 2200 nM with FcgRIIb; 70 nM with FcgRIIa H; 0.051 nM in the test with FcgRIa; 280 nM with FcgRIIa R.
